Results from patent US20150132307A1 (Hoffmann-La Roche, published 2015).
One block for each binder: values may come before it.

How the values were obtained:
[1] = target: T1, Biotinylated TWEAK (Example 7) (Homo sapiens (Human), UniProt O43508 99-249, Biotinylated (sites not given), captured on a streptavidin chip. The active form is a soluble homotrimer; one protomer is given.); experiment: Biacore crossblocking on immobilised biotinylated TWEAK; antibody 2 injected after saturating antibody 1 = TW-301chi (competitor m4), 100 nM each
T1 sequence: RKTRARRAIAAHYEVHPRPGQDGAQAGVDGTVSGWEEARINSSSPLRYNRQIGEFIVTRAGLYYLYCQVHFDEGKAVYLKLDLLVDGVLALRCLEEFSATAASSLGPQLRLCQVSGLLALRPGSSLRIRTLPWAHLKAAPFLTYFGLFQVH
Procedure: (§1) Because of the individual biochemical properties of the TWEAK protein another method had to be developed using TWEAK as ligand. Biotinylated TWEAK was immobilized on the streptavidin-coated chip surface and epitope coverage of consecutively injected antibodies (antibody 1) was measured. The aim was to detect the relative binding levels of a secondary antibody (antibody 2) in the presence of an already bound primary antibody. From these relative binding levels a quotient was calculated (Ab2/Ab1, molar ratio given in %, table 3).
(§2) 5 nM of biotinylated TWEAK was immobilized at 20 μl/min for 1 min on a streptavidin coated sensor flow cell. Primary and secondary mAbs were consecutively injected at 10 μl/min for 4 min into the system at 100 nM each until saturation of the respective TWEAK epitopes was achieved. As a reference an SA coated flow cell was used.

[2] = target: T2, human Flag-tagged soluble TWEAK (amino acids 106-249) (human, UniProt O43508 106-249); experiment: receptor interaction ELISA: Flag-TWEAK 2.5 ng/ml preincubated with antibody, then on coated human Fn14:Fc (competitor m21)
T2 construct: The sentence gives amino acids 106-249 without naming the entry; also called Human TWEAK; not shown: Flag tag
T2 sequence: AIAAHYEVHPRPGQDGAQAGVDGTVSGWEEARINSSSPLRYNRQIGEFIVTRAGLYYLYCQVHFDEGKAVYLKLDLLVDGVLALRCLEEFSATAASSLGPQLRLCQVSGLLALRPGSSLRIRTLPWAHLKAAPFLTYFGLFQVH
Procedure: 96-well Maxisorp® plates (Nunc) were coated with 100 μl 1 μg/ml human Fn14:Fc (extracellular domain of human Fn14 (amino acids 1-75 of SEQ ID NO: 98) fused to Fc portion of human IgG1) in PBS per well for 1.5 h at room temperature and blocked with a solution of 5% FBS in PBS for 30 minutes at room temperature under shaking. […] After washing the Fn14-coated plate once with wash buffer (0.1% Tween® 20 in PBS), 100 μl of the TWEAK-antibody solution were transferred to each well and the plate was incubated for 1 h at room temperature, followed by four washes with wash buffer. Wells were filled with 100 μl of anti-FLAG-HRP detection antibody, diluted 1:5000 in blocking buffer, and incubated for 1 h at room temperature. After four more wash steps, the signal was developed by addition of 100 μl 3,3,5,5-Tetramethylbenzidine (TMB) solution for approximately ten minutes. The reaction was stopped by adding 100 μl of 1 N HCl, and absorbance measured at 450 nm (reference wavelength 620 nm).

[3] = target: T3, Human recombinant soluble TWEAK (Example 6) (human, UniProt O43508 99-249, limits assumed); experiment: cell-based or functional assay
T3 sequence: T1 sequence

[4] = target: T1, Biotinylated TWEAK (Example 7); experiment: Biacore crossblocking on immobilised biotinylated TWEAK; antibody 2 injected after saturating antibody 1 = TW-304chi (competitor m5), 100 nM each
Procedure: as §1, §2

[5] = target: T1, Biotinylated TWEAK (Example 7); experiment: Biacore crossblocking on immobilised biotinylated TWEAK; antibody 2 injected after saturating antibody 1 = TW-305chi (competitor m6), 100 nM each
Procedure: as §1, §2

[6] = target: T4, Mouse soluble TWEAK (untagged, Example 5) (mouse, UniProt O54907 105-249, limits assumed); experiment: receptor interaction ELISA: mouse soluble TWEAK 4 ng/ml preincubated with antibody, then on coated mouse Fn14:Fc (competitor m22)
T4 construct: also called Murine TWEAK
T4 sequence: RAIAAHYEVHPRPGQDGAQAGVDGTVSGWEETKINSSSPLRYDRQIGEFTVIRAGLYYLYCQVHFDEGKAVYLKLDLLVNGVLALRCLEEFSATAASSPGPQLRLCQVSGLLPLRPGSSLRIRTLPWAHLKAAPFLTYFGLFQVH
Procedure: Briefly, Maxisorp plates were coated with mouse Fn14:Fc (extracellular domain of mouse Fn14 (amino acids 1-75 of SEQ ID NO: 98) fused to Fc portion of human IgG1) as described above for human Fn14:Fc, followed by blocking and washing. […] After 1 h of incubation at room temperature and four washes, biotinylated anti-mouse TWEAK antibody at 125 ng/ml in blocking buffer was added for 1 h at room temperature, followed by another four wash steps. The TWEAK antibody was detected by incubation with streptavidin-HRP, diluted 1:5000 in blocking buffer, for 30 minutes at room temperature. Signal was developed and absorbance measured as described above.

[7] = target: T5, Biotinylated human soluble TWEAK (amino acids 99-249 of SEQ ID NO: 68) (human, UniProt O43508 99-249, biotinylated); experiment: SPR (Biacore 2000), biotinylated soluble TWEAK on streptavidin chip, antibody 100 nM as analyte, 25 C
T5 construct: also called Human TWEAK
T5 sequence: T1 sequence
Procedure: A Biacore 2000 instrument was used with a Biacore streptavidin coated sensor mounted into the system. The system buffer HBS-ET (10 mM HEPES pH 7.4, 150 mM NaCl, 1 mM EDTA, 0.05% Tween® 20) was used at a flow rate of 100 μl/min. The sample buffer was the system buffer. Biotinylated human soluble TWEAK (amino acids 99-249 of SEQ ID NO: 68) and biotinylated murine soluble TWEAK (amino acids 81-225 of SEQ ID NO: 69) was immobilized on different flow cells on the SA sensor at 150 RU each. The flow cell FC1 was used as a blank reference cell. Each antibody was injected into the system as an analyte at 100 nM at 100 μl/min for 2 min association time. The dissociation of the immunecomplexes were monitored for 5 min. The sensor surface was washed with HBS-ET for 10 seconds and regenerated using 2×2 minutes injections with 10 mM glycine pH 2.25. This procedure was done at 25° C. The kinetically rate limiting step of the complex dissociation phase in the interval [240 s-300 s] was taken to calculate the dissociation rate kd [1/s] (Biacore Evaluation Software 4.0). According to the equation t1/2 diss=ln(2)/(60×kd), the half-life of the immunocomplexes in minutes was calculated.

[8] = target: T6, human Tweak-Fc (human, UniProt O43508 106-249, limits assumed); experiment: SPR (BIAcore T100), TWEAK ligand (Tweak-Fc) amine-coupled on C1 chip, Fab as analyte, 25 C
T6 construct: not shown: Fc part
T6 sequence: T2 sequence

[9] = target: T6, human Tweak-Fc; experiment: SPR (BIAcore T100), TWEAK ligand (Tweak-Fc) amine-coupled on C1 chip, Fab as analyte, 25 C, 1:1 model
[10] = target: T6, human Tweak-Fc; experiment: SPR (BIAcore T100), TWEAK ligand (Tweak-Fc) amine-coupled on C1 chip, Fab as analyte, 25 C, apparent KD, 1:1 model
Procedure: Around 100 resonance units (RU) of TWEAK was immobilized on the C1 chip surface at pH 5.0 using an amine coupling kit supplied by the GE Healthcare. The sample and system buffer was PBS-T (10 mM phosphate buffered saline including 0.05% Tween20) pH 7.4. Association was measured by injection the bispecific antibody in various concentrations in solution for 3 min at a flow of 30 μl/min starting with 50 nM in 1:1 dilutions. The dissociation phase was monitored for up to 10 min and triggered by switching from the sample solution to running buffer. The surface was regenerated by three times 30 sec. washing with a 3M MgCl2 solution at a flow rate of 30 μl/min. Bulk refractive index differences were corrected by subtracting the response obtained from a blank-coupled surface. Blank injections are also subtracted (=double referencing). For calculation of apparent KD and other kinetic parameters the Langmuir 1:1 model was used.

MR % (Ab2/Ab1, molar ratio) [1]: 0%
IC50 [2]: 2.8 ng/mL
Inhibition of IL-8 Secretion IC50 [ng/ml] (A375 cells) [3]: 121 ng/mL
MR % (Ab2/Ab1, molar ratio) [4]: 0%
MR % (Ab2/Ab1, molar ratio) [5]: 0%
IC50 [6]: 6.4 ng/mL
t/2 diss [min] 25° C. [7]: 110 min
B1: <TWEAK> 301chi (antibody, human IgG1, kappa, V domains shown)
VH: QSLEESGGGLVKPGASLTLTCTASGFTFNANYWICWVRQAPGKGLEWIACIYGGGNSGAYYASWATGRFTISRTSSTTVTLQMTSLTAADTATYFCARGPISRDLWGPGTLVTVSL
VL: DVVMTQTPASVSEPVGGTVTIKCQASQSIYSSLAWYQQKPGQPPKLLIYDAFDLASGVSSRFTGSGSGTQFTLTISDLECADAATYYCQSTDYGNSWDGNPFGGGTEVVVTR

T½ [8]: 2.72 h
koff [9]: 7.09e-05 s⁻¹
kon [9]: 4.72e+06 M⁻¹ s⁻¹
Kd [10]: 0.015 nM
B2: <TWEAK>305 (antibody 27) -Fab (Fab, V domains shown)
VH: QVQLVQSGAEVKKPGSSVKVSCKASGFDFSTYYMSWVRQAPGQGLEWMGTVYVRQGTTYYASWLNGRVTITADESTSTAYMELSSLRSEDTAVYYCARGGYNYDDAFVIWGQGTLVTVSS
VL: DIQMTQSPSSVSASVGDRVTITCQASQNIYSNLAWYQQKPGKAPKLLIYTASYLASGVPSRFSGSGSGTDYTLTISSLQPEDFATYYCQTAYYNSRPDTVAFGGGTKVEIK
